Test results: article PMC8666670, “Malonyl-acyl carrier protein decarboxylase activity promotes fatty acid and cell envelope biosynthesis in Proteobacteria” (The Journal of Biological Chemistry, 2021)

Experiments:
[1] = biological target: MadB(D79A) (S. oneidensis); experiment: not stated; dimeric structures of the MadB catalytic loop mutants, data in Table S3
[2] = biological target: MadB(H47A) (S. oneidensis); experiment: as above
[3] = biological target: MadB(N43A) (S. oneidensis); experiment: as above
[4] = biological target: MadB(N45A) (S. oneidensis); experiment: as above
[5] = biological target: MadB(S54A) (S. oneidensis); experiment: as above
[6] = biological target: MadB(T49A) (S. oneidensis); experiment: as above
[7] = biological target: MadB, standalone hot dog malonyl-ACP decarboxylase of Shewanella oneidensis (S. oneidensis); experiment: SEC; gel filtration chromatography of the purified recombinant protein
[8] = biological target: MadB, standalone hot dog malonyl-ACP decarboxylase of Shewanella oneidensis (S. oneidensis); experiment: AUC; sedimentation analysis (methods: sedimentation velocity, 50,000 rpm, interference optics), 0.02 M Tris pH 7.5, 0.5 M NaCl, 20 °C, no reducing agents

Question: How did the stoichiometry N [1] turn out when MadB(D79A) (enzyme) was run?
Answer: 2

Question: For MadB(H47A) (enzyme), which stoichiometry N [2] is on record?
Answer: 2

Question: MadB(N43A) (enzyme) was tested. Which stoichiometry N [3] did it give?
Answer: 2

Question: For MadB(N45A) (enzyme), which stoichiometry N [4] is on record?
Answer: 2

Question: How did the stoichiometry N [5] turn out when MadB(S54A) (enzyme) was run?
Answer: 2

Question: For MadB(T49A) (enzyme), which stoichiometry N [6] is on record?
Answer: 2

Question: What does the source list for “MadB, standalone hot dog malonyl-ACP decarboxylase of Shewanella oneidensis (enzyme)”?
Answer: stoichiometry N [7]: 2; stoichiometry N [8]: 2
